Bounds are passed on as bounds.

Here are results for ten molecules from patent US20250179196A1 (Janssen / Centocor, published 2025).

The target of test [1] is T1, Recombinant human IL-23 receptor (IL-23R) extracellular domain (ECD) protein (human, UniProt Q5VWK5 24-355).
T1 construct: also called human IL-23R ECD; hu IL-23R ECD
T1 sequence: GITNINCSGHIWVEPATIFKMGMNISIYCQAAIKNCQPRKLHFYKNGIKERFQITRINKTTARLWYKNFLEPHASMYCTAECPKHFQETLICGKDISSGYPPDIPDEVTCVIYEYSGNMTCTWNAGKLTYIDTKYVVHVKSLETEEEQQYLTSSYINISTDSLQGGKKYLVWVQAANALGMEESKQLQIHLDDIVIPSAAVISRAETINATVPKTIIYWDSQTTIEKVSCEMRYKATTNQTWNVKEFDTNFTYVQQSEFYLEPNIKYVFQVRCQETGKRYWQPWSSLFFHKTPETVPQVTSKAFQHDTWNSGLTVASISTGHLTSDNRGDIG
Description: SPR Biacore 8K, supernatant, analysis 2. In outline:
(§1)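 Antibodies (~150 RU) were captured and human or rat IL-23R ECD injected at 0.8–500 nM in 5-fold steps, at 25 °C in HBS-P+ with 100 μg/ml BSA. Association ran 3 min at 50 μL/min, followed by 30 min dissociation. Ka, Kd and KD came from a Langmuir 1:1 fit.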

Test [2] has as its target T1, Recombinant human IL-23 receptor …. Description: SPR Biacore 8K, purified, analysis 1. As to the method:
(§2) Affinity by SPR using Biacore 8K. Affinity measurements using Surface Plasmon Resonance (SPR) were performed using a Biacore 8K system (Cytiva). […] Approximately 9000-10000 RU (response units) of mAbs were immobilized. The kinetic experiments were performed at 25° C. in running buffer 1× of (HBS-P+ Buffer 10× (Cytiva #BR100671)+100 μg/ml BSA). To perform kinetic experiments, approximately 150 RU of mAbs were captured followed by injections of human IL-23R or rat IL-23R at concentrations ranging from 0.8 nM to 500 nM (in a 5-fold serial dilution). The association phase was monitored for 3 minutes at 50 μL/min, then followed by 30 minutes of buffer flow (dissociation phase). […] The collected data were processed using Biacore insight Evaluation software (Version 3.0.12.15655). The kinetic analysis of the data was performed using a Langmuir 1:1 binding model. The result for each mAb was reported in the format of Ka (On-rate), Kd (Off-rate) and KD (equilibrium dissociation constant).

Test [3] deals with T2, rat IL-23R extracellular domain (ECD) protein (rat).
T2 construct: also called rat IL-23R ECD; F1LX96 amino acids 24-354
T2 chain: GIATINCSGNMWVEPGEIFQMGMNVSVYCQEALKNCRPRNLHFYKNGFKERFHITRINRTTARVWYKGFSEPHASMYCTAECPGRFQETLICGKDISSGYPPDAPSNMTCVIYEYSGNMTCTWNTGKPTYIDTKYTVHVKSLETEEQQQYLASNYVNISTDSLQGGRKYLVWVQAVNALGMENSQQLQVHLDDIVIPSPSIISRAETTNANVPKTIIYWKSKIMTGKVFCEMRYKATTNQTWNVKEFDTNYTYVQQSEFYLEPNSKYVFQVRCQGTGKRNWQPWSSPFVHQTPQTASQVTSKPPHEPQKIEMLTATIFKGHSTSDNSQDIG
As to the kind of experiment: SPR Biacore 8K, supernatant. In outline:
as §1

For test [4], the target named is T1, Recombinant human IL-23 receptor …. As to the kind of experiment: SPR Biacore 8K, purified, analysis 2. The procedure: as §2
The target is the same in test [5]. Description: SPR ProteOn, purified. The procedure:
Affinity by SPR using ProteOn. Affinity measurements using Surface Plasmon Resonance (SPR) were performed using a ProteOn XPR36 system (BioRad). […] Approximately 6000 RU (response units) of mAbs were immobilized. The kinetic experiments were performed at 25° C. in running buffer (DPBS+0.01% P20+100 μg/ml BSA). […] The association phase was monitored for 3 minutes at 50 μL/min, then followed by 10 minutes of buffer flow (dissociation phase). The chip surface was regenerated with two 18 second pulses of 100 mM H3PO4 (Sigma, Cat #7961) at 100 μL/min. The collected data were processed using ProteOn Manager software. First, the data was corrected for background using inter-spots. Then, double reference subtraction of the data was performed by using the buffer injection for analyte injections. The kinetic analysis of the data was performed using a Langmuir 1:1 binding model. The result for each mAb was reported in the format of Ka (On-rate), Kd (Off-rate) and KD (equilibrium dissociation constant).

Test [6] deals with T2, rat IL-23R extracellular domain (ECD) …. As to the kind of experiment: SPR Biacore 8K, purified. As to the method: as §2

B1: I23RB65 (antibody, mouse IgG2a, kappa, V domains shown)
VH: EVQLQQSGPELVKPGASVKISCKASGYTFTDHTMDWVKQSHGKSLEWIGYIYPKSGNAAYSQKFKSEATLTVDKSSSTAYMEFHSLTSEDSAVYYCARWGLRRDGFTYWGQGTSVTVSS
VL: QIVLTQSPASLAVSLGQRATISCRASQSVSTSSYNYIHWYQQKPGQPPKLLIKYASNLESGVPARFSGSGSGTDFTLNIHPVEEDDTATYYCQHTWEIPYTFGSGTKLEIKR
notes: mouse immunization; mouse IgG2a/kappa
For the molecule B1, in test [1], the Kd stood at 0.11 nM, the koff turned out to be 4.58e-05 s⁻¹ and the kon was 416000 M⁻¹ s⁻¹. In addition, in test [2], the Kd is less than 0.0597 nM, the koff is less than 2.89e-05 s⁻¹ and the kon amounted to 484000 M⁻¹ s⁻¹. The binding result in test [3] is on record as “no binding (tested: 500 nM)”. For the same molecule, in test [4], the equilibrium dissociation constant (Kd) was less than 0.0723 nM, the koff was less than 2.89e-05 s⁻¹ and the on-rate constant (kon) was determined as 400000 M⁻¹ s⁻¹.

B2: I23RB92 (antibody, mouse IgG2a, kappa, V domains shown)
VH: EVQLQQSGPEVVKPGASVKISCKASGYTFTDHTMDWVKQSHGKNLEWIGYIYPKSGGTGYNQKFKNKATLTVDKSSSTAYMEFHSLTSDDSAVYYCARWGLRRDGFVYWGQGTLVTVSA
VL: DIKMTQSPASLAVSLGQRATISCRASQSVSTSKYDYIHWYQQKSGQPPRLLIKYASNLESGVPARFSGSGSGTDFTLNIHPVEEEDTATYYCQHTWEIPYTFGSGTKLELKR
notes: as for B1
Regarding B2, in test [1], the equilibrium dissociation constant (Kd) is less than 0.124 nM, the off-rate (koff) was less than 2.89e-05 s⁻¹ and the kon is 233000 M⁻¹ s⁻¹. Also, in test [2], the Kd was less than 0.109 nM, the koff was less than 2.89e-05 s⁻¹ and the kon is 265000 M⁻¹ s⁻¹. Besides, the binding result in test [3] is listed as “no binding (tested: 500 nM)”. Besides, in test [4], the Kd is less than 0.12 nM, the koff is less than 2.89e-05 s⁻¹ and the on-rate constant (kon) was determined as 240000 M⁻¹ s⁻¹.

B3: I23RB6 (antibody, mouse IgG2a, kappa, V domains shown)
VH: QVQLVQSGAEVKKPGSSVKVSCKASGGTFSSYAISWVRQAPGQGLEWMGGIIPIFGTANYAQKFQGRVTITADESTSTAYMELSSLRSEDTAVYYCARGRYIRSYDYFDYWGQGTLVTVSS
VL: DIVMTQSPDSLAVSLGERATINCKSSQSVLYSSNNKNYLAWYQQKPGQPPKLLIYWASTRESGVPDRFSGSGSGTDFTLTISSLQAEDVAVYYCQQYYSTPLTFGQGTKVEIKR
notes: phage display; human V regions, mouse IgG2a/kappa constant regions
Consider B3, for which the binding result in test [5] is “no binding”.

B4: I23RB76 (antibody, mouse IgG2a, kappa, V domains shown)
VH: EVQLQQSGPELVKPGASVKMSCKASGYTFTDYYMNWMKQSHGKSLEWIGYISPKNGRTGYNQKFKGKATLTVDKSSTTAYMELRSLTSEDSAVYYCAKSNGYYALDYWGQGTTVTVSS
VL: DIVLTQSPATLCVTPGETVSLSCRASQNIYKNLHWFQQKSHRSPRLLIKYASDSISGIPSRFTGSGSGTDYTLSINSVKPEDEGIYYCLQGYSTPWTFGGGTKLEIKR
notes: as for B1
With B4, in test [1], the Kd was determined as 0.0805 nM, the off-rate (koff) turned out to be 3.9e-05 s⁻¹ and the kon was 484000 M⁻¹ s⁻¹. Further, in test [2], the Kd amounted to 0.0891 nM, the koff stood at 5.62e-05 s⁻¹ and the kon was 631000 M⁻¹ s⁻¹. Also, in test [3], the binding result is reported as “no binding (tested: 500 nM)”. In test [4], the Kd came out at 0.0859 nM, the koff was 4.14e-05 s⁻¹ and the kon was 482000 M⁻¹ s⁻¹.

B5: I23RB94 (antibody, mouse IgG2a, kappa, V domains shown)
VH: DVQLQESGPELKKPGETVKISCKASGYTFTNYGMNWVRQAPGKSLKWMGWINTNTGEPAYAEEFKGRFAFSLETSASTAYLQINNLKNEDMATYFCARVRQTARATRGYFDVWGTGTTVTVSS
VL: DIVMTQSHKFMSTSVGDRVSITCKASQDVNTAVAWYQQKPGQSPKLLIYSAFYRYPGVPDRFTGSGSGTDFTFTINSVQAEDLAVYCCQQHYTSPLTFGDGTRLEIKR
notes: as for B1
On to B5, for which, in test [1], the Kd came to 1 nM, the koff was 0.000686 s⁻¹ and the kon worked out at 685000 M⁻¹ s⁻¹. Besides, in test [2], the Kd is 0.8 nM, the koff stood at 0.00063 s⁻¹ and the on-rate (kon) came to 787000 M⁻¹ s⁻¹. The binding result in test [3] is “no binding (tested: 500 nM)”. Besides, in test [4], the Kd stood at 1.15 nM, the off-rate (koff) worked out at 0.000753 s⁻¹ and the kon was found to be 656000 M⁻¹ s⁻¹.

B6: I23RB4 (antibody, mouse IgG2a, kappa, V domains shown)
VH: QVQLVQSGAEVKKPGSSVKVSCKASGGTFKTYAIHWVRQAPGQGLEWMGWIIPIFGTANYAQKFQGRVTITADESTSTAYMELSSLRSEDTAVYYCARDGGYYGSRYYPRSYYFDYWGQGTLVTVSS
VL: EIVLTQSPATLSLSPGERATLSCRASQSVSSYLAWYQQKPGQAPRLLIYDASNRATGIPARFSGSGSGTDFTLTISSLEPEDFAVYYCQQRSNWPLTFGQGTKVEIKR
notes: as for B3
In the case of B6, in test [1], the Kd came out at 0.477 nM, the koff was determined as 0.000121 s⁻¹ and the kon was 254000 M⁻¹ s⁻¹. For the same molecule, in test [2], the dissociation constant (Kd) amounted to 0.588 nM, the koff is 0.000135 s⁻¹ and the kon amounted to 230000 M⁻¹ s⁻¹. The binding result in test [3] was “no binding (tested: 500 nM)”. In test [5], the Kd was 0.151 nM, the koff turned out to be 0.000235 s⁻¹ and the kon is 1.56e+06 M⁻¹ s⁻¹.

B7: I23RB9 (antibody, mouse IgG2a, kappa, V domains shown)
VH: QVQLVQSGAEVKKPGSSVKVSCKASGGTFSSYAISWVRQAPGQGLEWMGGIIPIFGTANYAQKFQGRVTITADESTSTAYMELSSLRSEDTAVYYCARDRSYSYGLSGLGYYGFDYWGQGTLVTVSS
VL: EIVLTQSPATLSLSPGERATLSCRASQSVSSYLAWYQQKPGQAPRLLIYDASNRATGIPARFSGSGSGTDFTLTISSLEPEDFAVYYCQQRSNWPLTFGQGTKVEIKR
notes: as for B3
B7: the binding result in test [5] is “no binding”.

B8: I23RB3 (antibody, mouse IgG2a, kappa, V domains shown)
VH: QVQLVQSGAEVKKPGSSVKVSCKASGGTFKSYSIHWVRQAPGQGLEWMGGIIPYFGYANYAQKFQGRVTITADESTSTAYMELSSLRSEDTAVYYCARERGYYGSIYYGGGFDYWGQGTLVTVSS
VL: EIVLTQSPATLSLSPGERATLSCRASQSVSSYLAWYQQKPGQAPRLLIYDASNRATGIPARFSGSGSGTDFTLTISSLEPEDFAVYYCQQRSNWPLTFGQGTKVEIKR
notes: as for B3
As to B8, the results for the Kd in test [1], in test [2] and in test [5] were 3.99 nM, 4.76 nM and 1.92 nM, respectively. For the same molecule, the koff in test [1] was 0.000233 s⁻¹; in test [2], 0.000255 s⁻¹; in test [5], 0.000335 s⁻¹. Further, the kon in test [1] stood at 58300 M⁻¹ s⁻¹; in test [2], 53600 M⁻¹ s⁻¹; in test [5], 174000 M⁻¹ s⁻¹. The binding result in test [3] is “no binding (tested: 500 nM)”.

B9: I23RB2 (antibody, mouse IgG2a, kappa, V domains shown)
VH: QVQLVQSGAEVKKPGSSVKVSCKASGGTFSSYAISWVRQAPGQGLEWMGGIIPIFGTANYAQKFQGRVTITADESTSTAYMELSSLRSEDTAVYYCARDRYRYLGANGFDYWGQGTLVTVSS
VL: EIVLTQSPATLSLSPGERATLSCRASQSVSSYLAWYQQKPGQAPRLLIYDASNRATGIPARFSGSGSGTDFTLTISSLEPEDFAVYYCQQRSNWPLTFGQGTKVEIKR
notes: as for B3
B9: in test [5], the Kd is more than 4000 nM.

B10: I23RB101 (antibody, mouse IgG2a, kappa, V domains shown)
VH: EVQLQQSGAEVKKPGSSVKVSCKASGGTFSSYAISWVRQAPGQGLEWMGWINPNSGGTNYAQKFQGRVTMTRDTSISTAYMELSRLRSDDTAVYYCARGYRYGPLDGFDIWGQGTTLTVSS
VL: DIVMTQSHKFMSTSIGDRVSITCKTSQDVRTAVAWYQQKPGQSPKLLIYSASYRYIGVPDRFTGSGSGTDFTFTISDVQAEDLALYYCQQHYSTPYTFGGGTKLEIKR
notes: as for B1
In the case of B10, in test [6], the binding result is “no binding (tested: 500 nM)”.
